{"source": "patent US20110182943A1", "about": "“METHODS OF IMMUNE OR HEMATOLOGICAL ENHANCEMENT, INHIBITING TUMOUR FORMATION OR GROWTH, AND TREATING OR PREVENTING CANCER, CANCER SYMPTOMS, OR THE SYMPTOMS OF CANCER TREATMENTS” (FONTERRA CO-OPERATIVE GROUP LIMITED, priority 2007, published 2011)", "key": {"EL-4 tumours [1]": {"tested_on": "EL-4 tumours", "assay": "Tumour vascularity and blood flow (CD31, CD105, DiO7) in EL-4 tumours", "assay_type": "in vivo, mice", "details": "day 56", "method": "To determine tumour vascularity, 10-μm frozen tumour sections were fixed with acetone, rinsed with PBS, blocked with 2% BSA for 2 hr, and incubated overnight with the anti-CD31 antibody MEC13.3, or an anti-CD105 mAb. They were subsequently incubated for 30 min with secondary antibodies using the VECTASTAIN Universal Quick kit (Vector Laboratories, Burlingame, Calif., USA); and developed with Sigma FAST DAB (3,3′-diaminobenzidine tetrahydrochloride) and CoCl2 enhancer tablets (Sigma), and counterstained with hematoxylin. Stained blood vessels were counted in five or six blindly chosen random fields (0.155 mm^2) at ×40 magnification, and the mean of the highest three counts was calculated. To visualize blood vessels open to flow, DiO7 (Molecular Probes, Eugene, Oreg.) was injected into the tail vein at a concentration of 1.0 mg/Kg one minute prior to collecting tissues, as described previously (Ding et al., 2001). The concentric circles method was also used to assess vascularity.\nThe effects of Lf+ and milk fat on tumour blood flow and vascularity were analyzed by staining of tumour sections prepared as described in Example 5 with anti-CD31 and anti-CD105 mAbs, and by perfusion of DiO7, and respectively. […] Stained blood vessels were counted from six mice in six blindly chosen random fields."}, "EL-4 tumour cells": {"tested_on": "EL-4 tumour cells", "assay": "EL-4 lymphoma tumour growth in mice fed experimental diets", "assay_type": "in vivo, C57BL/6 mice", "excerpt": "Mice were challenged subcutaneously with 2×10^5 EL-4 tumour cells two weeks after being placed on the diets. Tumour size as measured by two perpendicular diameters (in centimetres) was monitored until day 91, or until tumours reached 1 cm in diameter. Each point represents the mean tumour size with 95% confidence intervals for either 6 mice, or the number of mice indicated.\nGroups of six mice were fed a control AIN-93G diet, diets containing either 28 g Lf+ or 120 g of milk fat (AMF) per 2.4 Kg of diet, or a diet containing a combination of both Lf and milk fat. Day 0 refers to the day the mice were placed on their diets. After 2 weeks on the diets, 2×10^5 EL-4 cells were injected into the flanks of mice. Tumour size as measured by two perpendicular diameters (in centimetres) was monitored until day 56. Each point represents the mean tumour size with 95% confidence intervals for either 6 mice, or the number of mice indicated.\nMice were challenged subcutaneously with EL-4 tumour cells two weeks after being placed on the diets. Tumour size was again measured by two perpendicular diameters (in centimetres)."}, "EL-4 target cells": {"tested_on": "EL-4 target cells", "assay": "Anti-tumour cytolytic activity of splenocytes from diet-fed mice", "assay_type": "in vivo", "details": "day 56", "method": "Splenocytes were harvested following tumour cell injection on days specified. They were incubated at 37° C. with EL-4 target cells in graded E:T ratios in 96-well roundbottom plates. After a 4-hour incubation, 50 μl of supernatant was collected, and lysis was measured using the Cyto Tox 96 Assay Kit (Promega, Madison, Wis., USA). Background controls for non-specific target and effector cell lysis were included. After background subtraction, percentage of cell lysis was calculated using the formula: 100×(experimental spontaneous effector-spontaneous target/maximum target-spontaneous target).\nSplenocytes were harvested from the mice described in Example 4 at day 56 and tested for their cytolytic activity against EL-4 target cells. […] The anti-tumour cytolytic activity was further increased by 86% (P<0.001) for mice fed the combination of Lf+ and milk fat compared to controls."}, "EL-4 tumours [2]": {"tested_on": "EL-4 tumours", "assay": "Tumour apoptosis (TUNEL / annexin-V-fluos) in EL-4 tumour sections", "assay_type": "in vivo, mice", "details": "day 56", "method": "Tumours were excised and immediately frozen in dry ice, and stored at −70° C. for later in situ detection of apoptotic cells in tumours. Frozen serial sections of 6-μm thickness were fixed with paraformaldehyde solution (4% in PBS, pH 7.4), and permeabilized with a solution containing 0.1% Triton X-100 and 0.1% sodium citrate. They were incubated with 20 μl TUNEL reagent (In Situ apoptosis detection kit from Boehringer Mannheim, Germany) for 60 min at 37° C., and examined by fluorescence microscopy. Adjacent sections were counter-stained with haematoxylin to count the total number of cells, or the number of apoptotic cells in ten randomly selected fields (magnification of ×40). The apototic index (AI) was calculated as the number of apoptotic cells×100/total number of nucleated cells. For detection of apoptotic cells in vitro, the numbers of apoptotic and necrotic tumour cells were measured by staining with annexin-V-fluos, TUNEL, and trypan blue. For measurement of gut apoptosis, jejunal sections were stained by the TUNEL method using a DeadEnd™ Fluorometric TUNEL System (Promega, Madison, Wis., USA). Apoptotic cells in 10 randomly selected cypts were counted, and the data expressed as apoptotic bodies per crypt. […]"}}}
{"molecule": "Lf+: Iron-saturated bovine lactoferrin extract (100% saturated) prepared from natural bLf (protein, UniProt P24627 20-708, looked up, iron-saturated, Iron-saturated bovine lactoferrin extract (100% saturated) prepared from natural bLf) Lactotransferrin: APRKNVRWCTISQPEWFKCRRWQWRMKKLGAPSITCVRRAFALECIRAIAEKKADAVTLDGGMVFEAGRDPYKLRPVAAEIYGTKESPQTHYYAVAVVKKGSNFQLDQLQGRKSCHTGLGRSAGWIIPMGILRPYLSWTESLEPLQGAVAKFFSASCVPCIDRQAYPNLCQLCKGEGENQCACSSREPYFGYSGAFKCLQDGAGDVAFVKETTVFENLPEKADRDQYELLCLNNSRAPVDAFKECHLAQVPSHAVVARSVDGKEDLIWKLLSKAQEKFGKNKSRSFQLFGSPPGQRDLLFKDSALGFLRIPSKVDSALYLGSRYLTTLKNLRETAEEVKARYTRVVWCAVGPEEQKKCQQWSQQSGQNVTCATASTTDDCIVLVLKGEADALNLDGGYIYTAGKCGLVPVLAENRKSSKHSSLDCVLRPTEGYLAVAVVKKANEGLTWNSLKDKKSCHTAVDRTAGWNIPMGLIVNQTGSCAFDEFFSQSCAPGADPKSRLCALCAGDDQGLDKCVPNSKEKYYGYTGAFRCLAEDVGDVAFVKNDTVWENTNGESTADWAKNLNREDFRLLCLDGTRKPVTEAQSCHLAVAPNHAVVSRSDRAAHVKQVLLHQQALFGKNGKNCPDKFCLFKSETKNLLFNDNTECLAKLGGRPTYEEYLGTEYVTAIANLKKCSTSPLLEACAFLTR", "values": [{"measurement": "reduction in number of CD31+ vessels in tumours compared to control diet", "setting": "EL-4 tumours [1]", "value": 84, "unit": "%"}, {"measurement": "reduction in tumour blood flow compared to control diet", "setting": "EL-4 tumours [1]", "value": 84, "unit": "%"}, {"measurement": "mice that completely rejected the tumour challenge", "setting": "EL-4 tumour cells; 28 g Lf+ and/or 120 g milk fat per 2.4 Kg of diet, groups of six mice, until day 56", "value": "One of 6"}, {"measurement": "mice in which appearance of tumours was delayed by one week", "setting": "EL-4 tumour cells; 28 g Lf+ or 120 g milk fat per 2.4 Kg of diet, groups of six mice", "value": "5 of 6"}, {"measurement": "effect on tumour growth / tumorigenesis in individual mice", "setting": "EL-4 tumour cells; groups of five mice, per 2.4 Kg of diet: 28 g Lf+, 120 g Phospholac 600, 1.2 g sphingomyelin", "value": "growth of two tumours being delayed by two weeks, and one by at least one week"}, {"measurement": "increase in anti-tumour cytolytic activity of splenocytes compared with control diet", "setting": "EL-4 target cells", "value": 66, "unit": "%"}, {"measurement": "increase in tumour apoptosis compared to control diet", "setting": "EL-4 tumours [2]", "value": 68, "unit": "%"}]}
